# T1: murine CD22 protein (ACROBiosystems, SI2-M52Ha) (murine, UniProt P35329 22-708)
# T1 construct: extracellular domain; also called murine CD22-ECD; murine CD22-ECD-His
# T1 sequence (looked up): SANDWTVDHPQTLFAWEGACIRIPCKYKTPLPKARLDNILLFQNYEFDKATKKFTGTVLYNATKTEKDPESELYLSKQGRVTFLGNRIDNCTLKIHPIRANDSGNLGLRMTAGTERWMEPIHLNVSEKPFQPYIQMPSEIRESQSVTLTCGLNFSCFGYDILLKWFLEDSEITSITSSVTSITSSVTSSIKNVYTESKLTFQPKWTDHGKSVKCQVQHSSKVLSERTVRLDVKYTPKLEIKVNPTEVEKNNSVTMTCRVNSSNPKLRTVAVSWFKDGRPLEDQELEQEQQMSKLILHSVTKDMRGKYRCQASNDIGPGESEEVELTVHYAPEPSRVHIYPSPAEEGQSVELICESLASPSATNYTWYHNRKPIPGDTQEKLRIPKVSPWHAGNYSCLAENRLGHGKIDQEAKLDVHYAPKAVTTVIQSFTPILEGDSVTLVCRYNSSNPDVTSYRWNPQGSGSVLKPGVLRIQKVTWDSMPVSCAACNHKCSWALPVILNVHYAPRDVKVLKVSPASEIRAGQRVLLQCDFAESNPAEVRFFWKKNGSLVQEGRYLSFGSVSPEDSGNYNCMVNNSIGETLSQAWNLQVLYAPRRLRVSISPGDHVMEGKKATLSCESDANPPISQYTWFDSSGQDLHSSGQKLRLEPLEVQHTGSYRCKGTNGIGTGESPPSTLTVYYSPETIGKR
# T2: human CD22, full length, on CHO-K1-human CD22 2C4 cells (human, UniProt P20273 20-847)
# T2 construct: Full-length human CD22 (NCBI NP_001762.2) stably transfected into CHO-K1
# T2 sequence: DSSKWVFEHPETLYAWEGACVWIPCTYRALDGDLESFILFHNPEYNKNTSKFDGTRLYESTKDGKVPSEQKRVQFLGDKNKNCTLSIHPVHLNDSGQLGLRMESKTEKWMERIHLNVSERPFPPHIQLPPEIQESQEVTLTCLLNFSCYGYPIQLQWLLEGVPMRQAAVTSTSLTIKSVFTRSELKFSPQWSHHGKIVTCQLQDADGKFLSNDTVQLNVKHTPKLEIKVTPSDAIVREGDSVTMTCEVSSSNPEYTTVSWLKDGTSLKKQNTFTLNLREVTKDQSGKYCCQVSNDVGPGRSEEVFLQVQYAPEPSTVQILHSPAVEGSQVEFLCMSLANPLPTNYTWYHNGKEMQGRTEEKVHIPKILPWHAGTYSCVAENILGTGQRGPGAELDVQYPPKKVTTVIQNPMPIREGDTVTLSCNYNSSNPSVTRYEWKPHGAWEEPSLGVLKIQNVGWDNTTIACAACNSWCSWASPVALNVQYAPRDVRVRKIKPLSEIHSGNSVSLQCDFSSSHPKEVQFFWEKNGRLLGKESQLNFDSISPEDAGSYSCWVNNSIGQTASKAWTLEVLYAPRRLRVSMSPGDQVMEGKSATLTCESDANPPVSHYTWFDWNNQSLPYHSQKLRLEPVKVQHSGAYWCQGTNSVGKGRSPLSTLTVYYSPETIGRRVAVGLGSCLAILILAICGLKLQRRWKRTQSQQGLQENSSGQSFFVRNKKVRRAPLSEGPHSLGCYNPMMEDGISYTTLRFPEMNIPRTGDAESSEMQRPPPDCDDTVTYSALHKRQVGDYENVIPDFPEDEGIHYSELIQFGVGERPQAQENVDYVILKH
# T3: human CD22, endogenous on Raji cells (human, UniProt P20273 20-847)
# T3 construct: whole, on cells; Endogenous protein of the Raji cell line
# T3 sequence (looked up): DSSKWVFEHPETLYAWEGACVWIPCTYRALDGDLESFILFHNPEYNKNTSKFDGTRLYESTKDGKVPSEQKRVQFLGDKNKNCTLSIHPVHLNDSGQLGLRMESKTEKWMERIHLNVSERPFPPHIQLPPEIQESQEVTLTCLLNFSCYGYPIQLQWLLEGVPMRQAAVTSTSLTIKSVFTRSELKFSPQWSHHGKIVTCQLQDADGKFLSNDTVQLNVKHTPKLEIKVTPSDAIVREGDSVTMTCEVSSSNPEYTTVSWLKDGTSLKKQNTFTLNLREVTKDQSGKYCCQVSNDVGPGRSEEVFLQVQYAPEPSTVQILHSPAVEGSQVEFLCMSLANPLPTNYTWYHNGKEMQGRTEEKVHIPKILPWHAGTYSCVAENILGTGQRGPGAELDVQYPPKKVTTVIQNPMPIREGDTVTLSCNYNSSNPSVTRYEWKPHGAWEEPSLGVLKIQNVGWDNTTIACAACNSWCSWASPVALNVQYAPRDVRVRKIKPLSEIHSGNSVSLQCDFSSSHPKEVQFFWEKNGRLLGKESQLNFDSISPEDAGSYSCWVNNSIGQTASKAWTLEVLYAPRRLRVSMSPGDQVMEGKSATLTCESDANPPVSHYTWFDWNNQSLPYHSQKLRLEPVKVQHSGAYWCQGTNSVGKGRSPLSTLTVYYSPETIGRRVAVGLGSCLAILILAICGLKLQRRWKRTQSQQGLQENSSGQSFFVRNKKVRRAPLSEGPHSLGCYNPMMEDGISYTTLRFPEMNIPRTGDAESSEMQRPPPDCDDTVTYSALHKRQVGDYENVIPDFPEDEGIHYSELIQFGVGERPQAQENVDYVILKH
# B1: F1.105.11 human-murine chimeric antibody (antibody, human IgG1, kappa, V domains shown)
# VH: EVQLQQSGPVLVKPGASVKMSCKASGYTFSDYFMNWVKQSHGKSLEWIGIINSYSGGTSYNQKFKGKATLTVDKSSSTAYMELNSLTSEDSAVYYCARWMDYWGQGTSVTVSS
# VL: DVQITQSPSYLAASPGETITINCRTSESISKHLAWYQEKPGKTNKLLIYSGSTLQSGIPSRFSGSGSGTDFTLTISSLEPEDFAMYYCQQHNEYPWTFGGGTKLEIKR
# notes: Chimeric, human IgG1 / kappa; VL tied by name
# B2: F1.231.15 human-murine chimeric antibody (antibody, human IgG1, V domains shown)
# VH: QVQLQQPGAELVKPGASVKLSCKTSGYTFTIYWMQWVKQRPGRGLEWIGRIDPHSGDTHYNENFTTKVTLTVDETSNTAYMHLSGLTSEDSAVYYCARRDYSYYVLDYWGQGTSVTVSS
# VL: DVVLTQTPLSLPVSLGDQASISCRSSQSLVHINGDTYLHWYLQKPGQSPKLLIYTVFNRFSGVPDRFSGSGSGTDFTLKISRVEAEDLGAYFCSQSTHVPYTFGGGTKLEIKR
# notes: Chimeric: murine V regions on human IgG1 heavy constant region and kappa light constant region
# B3: F1.267.9 human-murine chimeric antibody (antibody, human IgG1, kappa, V domains shown)
# VH: EVQLQQSGPVLVKPGASVKMSCKASGYTFTDFYMNWAKQSHGKSLEWVGVINPYNGGINYNQKFKGKATLTVDKSSSTAYMEFNSLTSEDSAVYYCARRMEYHAMDYWGQGTSVTVSS
# VL: DIVLTQSPASLAVSLGQRATISCRASESVDNYGFDFIHWYQQKPGQPPKLLIYRASNLESGIPARFSGSGSRPDFTLTINPVETDDVATYYCQQSIKDPWTFGGGTKLEIKR
# notes: as for B1
# B4: m971-hIgG1 (antibody, V domains shown)
# VH: QVQLQQSGPGLVKPSQTLSLTCAISGDSVSSNSAAWNWIRQSPSRGLEWLGRTYYRSKWYNDYAVSVKSRITINPDTSKNQFSLQLNSVTPEDTAVYYCAREVTGDLEDAFDIWGQGTMVTVSS
# VL: DIQMTQSPSSLSASVGDRVTITCRASQTIWSYLNWYQQRPGKAPNLLIYAASSLQSGVPSRFSGRGSGTDFTLTISSLQAEDFATYYCQQSYSIPQTFGQGTKLEIKR
# notes: Positive control anti-human CD22 antibody; V regions from US 8,591,889 B on human IgG1 constant regions
# B5: F1.7.6 human-murine chimeric antibody (antibody, human IgG1, kappa, V domains shown)
# VH: EIQLQQSGPELVKPGTSVKVSCKASGYDFTRYNMYWVKQSHGKSLEWIGYIDPYNGDTRYNQKFKGKATLTVDKSSSTAYMHLNSLTSEDSAVYYCEAIYYDMEGYALDYWGQGTSVTVSS
# VL: DIVMSQSPSSLAVSVGEKVTMSCKSSQSLLYSNNQKNYLAWYQQKPGQSPKKLIYWASTRESGVPDRLTGSGSGTDFTLTISSVTAEDLAVYYCQQFYSYPWTFGGGTKLEIKR
# notes: as for B1
# B6: F1.224.1 human-murine chimeric antibody (antibody, human IgG1, kappa, V domains shown)
# VH: EVLLHQSGPELVKPGASVKISCKASGYTFTDFNMDWVRQRHGQSLEWIGDVNPNNGGTIYNQKFKGKATLTVDKSSSTVYMDLRSLTSDDTAVYYCVRLGTSDYGEAWFISWGQGTVVTVSA
# VL: DIVLTQSPASLAVSLGQRATISCRASQSVSTPRYSFMHWYQQKPGQPPKLLIKYASNLESGFPARFTGSGSGTDFTLNIHPVEEEDTAAYYCQQSWAIPWTFGGGTKLEIKR
# notes: as for B1
# What was measured:
# [1] = molecular target: T1, murine CD22 protein (ACROBiosystems, …); assay: ELISA, coated murine CD22, 0.00001 nM Ab
# Description: (§1) In order to detect the binding activity of CD22 human-murine chimeric antibodies to CD22 protein, the purified human CD22-ECD-His protein obtained in Example 2 was diluted with PBS to a final concentration of 2 μg/mL, and then added to 96-well ELISA plate at 100 μl/well. The plate was sealed with plastic film and incubated overnight at 4° C., the plate was washed 2 times with PBS the next day, and then a blocking solution [PBS+2% (w/w) BSA] was added for blocking at room temperature for 2 hours. […] After incubation at 37° C. for 2 hours, the plate was washed 3 times with PBS. HRP (horseradish peroxidase)-labeled secondary antibody (purchased from Sigma, catalog number: A0170) was added, and incubated at 37° C. for 2 hours, and the plate was washed 5 times with PBS. TMB substrate was added at 50 μl/well, and incubated at room temperature for 30 minutes, then a stop solution (1.0 N HCl) was added at 50 μl/well.
# (§2) In order to detect the species cross-binding activity of the chimeric antibodies, an ELISA plate was coated with commercial murine CD22 protein (ACROBiosystems, catalog number: SI2-M52Ha) and monkey CD22 protein (ACROBiosystems, catalog number: SI2-R52Ha), respectively, and the ELISA detection was performed according to the method in Example 5.1.
# [2] = molecular target: T2, human CD22, full length, on …; assay: FACS, CHO-K1-human CD22 2C4 cells
# Description: (§3) The required cells were scale-up cultured in a T-75 cell culture flask to the logarithmic growth phase. For the adherent cell CHO-K1, the medium was aspirated, the cells were washed 2 times with PBS buffer, and then digested with trypsin. After the digestion was terminated, the cells were washed 2 times with PBS buffer. For suspension cell Raji, the medium supernatant was directly centrifuged and discarded, and the cell pellet was washed 2 times with PBS. After counting the cells in the previous step, the cell pellet was resuspended with [PBS+2% (w/w) BSA] blocking solution to 2×10⁶ cells/ml, and added to a 96-well FACS reaction plate at 50 μl/well, and then the chimeric antibody test sample was added at 50 μl/well, and incubated on ice for 2 hours. The mixture was centrifuged and washed 3 times with PBS buffer, Alexa Flour 488-labeled secondary antibody (purchased from Invitrogen, catalog number: A-11013) was added at 50 μl/well, and incubated on ice for 1 hour. The obtained mixture was centrifuged and washed 5 times with PBS, and FACS (FACS Canto™, purchased from BD Company) was used for detection and result analysis. Data analysis was performed by software (CellQuest) to obtain the mean fluorescence density (MFI)of the cells. And then software (GraphPad Prism8) was used for analysis, data fitting, and EC50 value calculation. […] The same method was used to detect the binding of the chimeric antibodies to endogenous CD22-negative cell MoLT4 cells (purchased from ATCC, CRL-1582) and CHO-K1 cells.
# [3] = molecular target: T1, murine CD22 protein (ACROBiosystems, …); assay: ELISA, coated murine CD22, 100 nM Ab
# Description: as §1, §2
# [4] = molecular target: T1, murine CD22 protein (ACROBiosystems, …); assay: ELISA, coated murine CD22, 0.1 nM Ab
# Description: as §1, §2
# [5] = molecular target: T1, murine CD22 protein (ACROBiosystems, …); assay: ELISA, coated murine CD22, 10 nM Ab
# Description: as §1, §2
# [6] = molecular target: T1, murine CD22 protein (ACROBiosystems, …); assay: ELISA, coated murine CD22, 0.0001 nM Ab
# Description: as §1, §2
# [7] = molecular target: T3, human CD22, endogenous on Raji cells; assay: FACS, Raji cells
# Description: as §3
# [8] = molecular target: T1, murine CD22 protein (ACROBiosystems, …); assay: ELISA, coated murine CD22, 0.001 nM Ab
# Description: as §1, §2
# [9] = molecular target: T1, murine CD22 protein (ACROBiosystems, …); assay: ELISA, coated murine CD22, 0.01 nM Ab
# Description: as §1, §2
Binder,OD450 [1] [OD450],EC50 [2] [nM],Maximum mean fluorescence intensity [2] [MFI],OD450 [3] [OD450],OD450 [4] [OD450],OD450 [5] [OD450],OD450 [6] [OD450],EC50 [7] [nM],Maximum mean fluorescence intensity [7] [MFI],OD450 [8] [OD450],OD450 [9] [OD450]
B1,0.05,2.53,28300,0.08,0.05,0.05,0.05,1.39,24400,0.05,0.05
B2,0.06,1.18,35400,0.06,0.05,0.06,0.05,0.45,28800,0.05,0.05
B3,0.07,2.08,31200,0.07,0.06,0.08,0.07,1.66,26700,0.07,0.06
B4,0.07,,,0.11,0.07,0.08,0.07,,,0.06,0.07
B5,0.06,0.63,29700,0.07,0.06,0.06,0.06,0.23,25900,0.06,0.06
B6,0.06,0.99,30400,0.07,0.05,0.1,0.05,0.65,23600,0.05,0.06
